The assay addresses T1, GST-αβ fusion protein (human, UniProt P52655 1-376).
T1 construct: Bacterially expressed and fixed to glutathione sepharose beads; not shown: glutathione-S-transferase (GST), fusion partner
T1 sequence (looked up): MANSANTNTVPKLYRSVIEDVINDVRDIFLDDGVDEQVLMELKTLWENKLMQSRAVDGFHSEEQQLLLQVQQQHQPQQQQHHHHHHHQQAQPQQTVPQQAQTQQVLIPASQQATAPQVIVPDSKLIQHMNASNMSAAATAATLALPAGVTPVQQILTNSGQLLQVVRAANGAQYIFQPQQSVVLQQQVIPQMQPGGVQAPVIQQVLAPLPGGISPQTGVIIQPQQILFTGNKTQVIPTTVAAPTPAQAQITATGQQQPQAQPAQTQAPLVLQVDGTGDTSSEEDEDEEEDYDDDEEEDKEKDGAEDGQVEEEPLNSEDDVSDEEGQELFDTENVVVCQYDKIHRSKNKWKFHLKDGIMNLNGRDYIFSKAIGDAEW
Description: GST pull-down, 35S-labelled protein on glutathione sepharose beads, autoradiography. Here is the method: Bacterial extracts of GST or GST fusion proteins were incubated with glutathione sepharose-4B beads (6-9 μg of GST-fusion protein/20 μl of beads) with shaking at […]. After 2 hours the beads were washed with 50 column volumes of cold buffer A (20 mM NaH₂PO₄ (pH 7.0) 150 mM NaCl, 1 mM DTT, 1 mM PMSF). Washed beads (20 μl) were then incubated with reticulocyte lysates containing 2×10⁴ cpm of ³⁵S labelled protein in 300 μl of protein binding buffer (PBB) for 1 hour at room temperature. PBB contained 20 mM Hepes (pH 7.9), 20% glycerol, 0.5 mM EDTA, 60 mM KCl, 5 mM MgCl2, 0.1% NP40, and 5 mM β-mercaptoethanol. The beads were subsequently washed 4 times in PBB and labeled proteins were eluted with 1M KCl. Samples were analyzed on 15% SDS polyacrylamide gels, enhanced with NaSalycilate, and visualized by autoradiography.

This note sets out measurements from patent US20020086396A1 (Human Genome Sciences, published 2002).

B1: 35S-labelled TFIIA αβ (large subunit of human TFIIA) (other, UniProt P52655 1-376, looked up)
chain: MANSANTNTVPKLYRSVIEDVINDVRDIFLDDGVDEQVLMELKTLWENKLMQSRAVDGFHSEEQQLLLQVQQQHQPQQQQHHHHHHHQQAQPQQTVPQQAQTQQVLIPASQQATAPQVIVPDSKLIQHMNASNMSAAATAATLALPAGVTPVQQILTNSGQLLQVVRAANGAQYIFQPQQSVVLQQQVIPQMQPGGVQAPVIQQVLAPLPGGISPQTGVIIQPQQILFTGNKTQVIPTTVAAPTPAQAQITATGQQQPQAQPAQTQAPLVLQVDGTGDTSSEEDEDEEEDYDDDEEEDKEKDGAEDGQVEEEPLNSEDDVSDEEGQELFDTENVVVCQYDKIHRSKNKWKFHLKDGIMNLNGRDYIFSKAIGDAEW
modifications: 35S label
notes: Made in reticulocyte lysate as 35S-labelled protein; also called αβ subunit; radiolabelled αβ
With B1, the binding result is “no binding”.
